Data: patent publication US20240228579A1 (Innovent, published 2024)
Numbering of substitutions follows the chain as printed. Numbers in names are those of the source.

T1: Human CD32B/FCGR2B protein (human, UniProt P31994 43-217, limits assumed)
T1 construct: Bought, his-tagged; also called FcγRIIb; not shown: his tag
T1 sequence (looked up): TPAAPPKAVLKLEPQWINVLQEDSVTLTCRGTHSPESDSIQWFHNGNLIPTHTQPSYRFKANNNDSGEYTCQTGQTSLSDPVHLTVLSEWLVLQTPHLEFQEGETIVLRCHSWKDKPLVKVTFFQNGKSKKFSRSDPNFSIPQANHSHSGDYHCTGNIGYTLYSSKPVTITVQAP

T2: Human CD32A/FCGR2A protein (167Arg) (human, UniProt P12318 34-218, limits assumed)
T2 construct: Bought, his-tagged; also called CD32A (R167); CD32A R167; not shown: his tag
T2 sequence (looked up): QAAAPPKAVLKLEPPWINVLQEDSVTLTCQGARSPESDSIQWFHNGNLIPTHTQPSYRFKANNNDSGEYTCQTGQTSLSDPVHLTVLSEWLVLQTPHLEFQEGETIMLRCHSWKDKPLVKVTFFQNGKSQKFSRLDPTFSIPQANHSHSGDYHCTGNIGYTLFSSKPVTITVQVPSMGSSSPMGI

T3: Human CD32A/FCGR2A protein (167his) (human, UniProt P12318 34-218, limits assumed)
T3 construct: Bought, his-tagged; also called CD32A (H167); CD32A H167; not shown: his tag
T3 sequence (looked up): T2 sequence (looked up) with R134H

T4: Claudin18.2 (cp0007, Genscript) (UniProt P56856-2 1-261, limits assumed)
T4 construct: Bought antigen used in BLI; also called Claudin18.2 antigen; the antigen
T4 sequence (looked up): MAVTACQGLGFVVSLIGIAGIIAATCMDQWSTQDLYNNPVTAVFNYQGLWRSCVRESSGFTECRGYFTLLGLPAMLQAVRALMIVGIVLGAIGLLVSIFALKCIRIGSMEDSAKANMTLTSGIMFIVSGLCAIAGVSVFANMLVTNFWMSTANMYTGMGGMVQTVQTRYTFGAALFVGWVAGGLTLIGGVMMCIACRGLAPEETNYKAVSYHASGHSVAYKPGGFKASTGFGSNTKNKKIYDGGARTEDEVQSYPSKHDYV

B1: Fcmut-02 (antibody, human IgG1, kappa)
heavy: QVQLVQSGAEVKKPGSSVKVSCKASGYSFSSYNIHWVRQAPGQGLEWMGYIAPFQGDSRYNQKFKGRVTITADKSTSTAYMELSSLRSEDTAVYYCARLNRGNSLDYWGQGTLVTVSSASTKGPSVFPLAPSSKSTSGGTAALGCLVKDYFPEPVTVSWNSGALTSGVHTFPAVLQSSGLYSLSSVVTVPSSSLGTQTYICNVNHKPSNTKVDKKVEPKSCDKTHTCPPCPAPELLGGPSVFLFPPKPKDTLMISRTPEVTCVVVDVSHEDPEVKFNWYVDGVEVHNAKTKPREEQYNSTYRVVSVLTVLHQDWLNGKEYKCKVSNKALAPIEKTISKAKGQPREPQVYTLPPSREEMTKNQVSLTCLVKGFYPSDIAVEWESNGQPENNYKTTPPVLDSDGSFFLYSKLTVDKSRWQQGNVFSCSVMHEALHNHYTQKSLSLSPGK
light: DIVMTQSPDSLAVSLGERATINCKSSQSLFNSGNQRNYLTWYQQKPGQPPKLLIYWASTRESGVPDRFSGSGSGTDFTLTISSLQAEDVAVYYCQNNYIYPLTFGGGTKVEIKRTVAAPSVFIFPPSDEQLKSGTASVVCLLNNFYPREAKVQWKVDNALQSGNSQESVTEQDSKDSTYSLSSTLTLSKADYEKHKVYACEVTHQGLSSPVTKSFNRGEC
notes: IgG1-mut of Fcmut-01: deletion of 329 (EU index); also called Fcmut-2
B2: Fcmut-03 (antibody, human IgG1, kappa)
heavy: B1 heavy with A330G
light: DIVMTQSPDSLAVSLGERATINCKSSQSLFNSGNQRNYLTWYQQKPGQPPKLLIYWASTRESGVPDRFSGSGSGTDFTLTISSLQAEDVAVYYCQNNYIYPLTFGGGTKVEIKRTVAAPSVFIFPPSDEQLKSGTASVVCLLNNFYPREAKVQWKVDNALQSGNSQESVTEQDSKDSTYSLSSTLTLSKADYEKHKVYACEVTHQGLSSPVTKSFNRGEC
notes: IgG1-mut of Fcmut-01: deletion of 329, G at 330 (EU index)
B3: Fcmut-04 (antibody, human IgG1, kappa)
heavy: QVQLVQSGAEVKKPGSSVKVSCKASGYSFSSYNIHWVRQAPGQGLEWMGYIAPFQGDSRYNQKFKGRVTITADKSTSTAYMELSSLRSEDTAVYYCARLNRGNSLDYWGQGTLVTVSSASTKGPSVFPLAPSSKSTSGGTAALGCLVKDYFPEPVTVSWNSGALTSGVHTFPAVLQSSGLYSLSSVVTVPSSSLGTQTYICNVNHKPSNTKVDKKVEPKSCDKTHTCPPCPAPELLGGPSVFLFPPKPKDTLMISRTPEVTCVVVDVSHEDPEVKFNWYVDGVEVHNAKTKPREEQYNSTYRVVSVLTVLHQDWLNGKEYKCKVSNKALPIEKTISKAKGQPREPQVYTLPPSREEMTKNQVSLTCLVKGFYPSDIAVEWESNGQPENNYKTTPPVLDSDGSFFLYSKLTVDKSRWQQGNVFSCSVMHEALHNHYTQKSLSLSPGK
light: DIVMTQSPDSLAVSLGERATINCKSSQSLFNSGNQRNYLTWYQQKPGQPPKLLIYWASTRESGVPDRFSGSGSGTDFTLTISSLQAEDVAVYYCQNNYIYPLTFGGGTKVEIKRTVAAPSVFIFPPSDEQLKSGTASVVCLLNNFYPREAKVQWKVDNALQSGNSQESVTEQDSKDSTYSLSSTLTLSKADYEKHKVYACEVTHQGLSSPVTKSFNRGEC
notes: IgG1-mut of Fcmut-01: deletion of 329 and 330 (EU index)
B4: Fcmut-06 (antibody, human IgG1, kappa, L234A L235A)
heavy: B1 heavy with L235A, L236A
light: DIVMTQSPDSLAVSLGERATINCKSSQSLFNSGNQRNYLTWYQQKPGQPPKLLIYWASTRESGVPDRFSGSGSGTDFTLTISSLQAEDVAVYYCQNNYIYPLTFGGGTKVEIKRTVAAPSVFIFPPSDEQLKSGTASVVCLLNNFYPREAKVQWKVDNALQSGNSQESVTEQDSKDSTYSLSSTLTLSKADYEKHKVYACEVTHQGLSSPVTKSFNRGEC
notes: IgG1-mut of Fcmut-01: L234A + L235A + deletion of 329 (EU index)
B5: Fcmut-22 (antibody, human IgG4 S228P, kappa, F234A L235A)
heavy: QVQLVQSGAEVKKPGSSVKVSCKASGYSFSSYNIHWVRQAPGQGLEWMGYIAPFQGDSRYNQKFKGRVTITADKSTSTAYMELSSLRSEDTAVYYCARLNRGNSLDYWGQGTLVTVSSASTKGPSVFPLAPCSRSTSESTAALGCLVKDYFPEPVTVSWNSGALTSGVHTFPAVLQSSGLYSLSSVVTVPSSSLGTKTYTCNVDHKPSNTKVDKRVESKYGPPCPPCPAPEAAGGPSVFLFPPKPKDTLMISRTPEVTCVVVDVSQEDPEVQFNWYVDGVEVHNAKTKPREEQFNSTYRVVSVLTVLHQDWLNGKEYKCKVSNKGLSSIEKTISKAKGQPREPQVYTLPPSQEEMTKNQVSLTCLVKGFYPSDIAVEWESNGQPENNYKTTPPVLDSDGSFFLYSRLTVDKSRWQEGNVFSCSVMHEALHNHYTQKSLSLSLGK
light: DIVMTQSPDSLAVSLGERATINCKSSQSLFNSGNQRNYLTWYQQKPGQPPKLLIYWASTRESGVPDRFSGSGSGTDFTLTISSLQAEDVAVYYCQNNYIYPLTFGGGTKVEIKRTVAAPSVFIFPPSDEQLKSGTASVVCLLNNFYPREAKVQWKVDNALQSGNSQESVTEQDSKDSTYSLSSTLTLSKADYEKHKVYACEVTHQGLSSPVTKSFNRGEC
B6: Fcmut-23 (antibody, human IgG4 S228P, kappa, F234A L235A)
heavy: B5 heavy with S327G
light: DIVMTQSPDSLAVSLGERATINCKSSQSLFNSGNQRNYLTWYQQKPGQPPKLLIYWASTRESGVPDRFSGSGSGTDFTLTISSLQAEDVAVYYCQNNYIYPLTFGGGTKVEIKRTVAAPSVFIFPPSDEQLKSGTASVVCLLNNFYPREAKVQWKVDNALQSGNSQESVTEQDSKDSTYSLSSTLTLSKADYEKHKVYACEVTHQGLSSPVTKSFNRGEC
B7: Fcmut-20 (antibody, human IgG4 S228P, kappa)
heavy: QVQLVQSGAEVKKPGSSVKVSCKASGYSFSSYNIHWVRQAPGQGLEWMGYIAPFQGDSRYNQKFKGRVTITADKSTSTAYMELSSLRSEDTAVYYCARLNRGNSLDYWGQGTLVTVSSASTKGPSVFPLAPCSRSTSESTAALGCLVKDYFPEPVTVSWNSGALTSGVHTFPAVLQSSGLYSLSSVVTVPSSSLGTKTYTCNVDHKPSNTKVDKRVESKYGPPCPPCPAPEFLGGPSVFLFPPKPKDTLMISRTPEVTCVVVDVSQEDPEVQFNWYVDGVEVHNAKTKPREEQFNSTYRVVSVLTVLHQDWLNGKEYKCKVSNKGLSIEKTISKAKGQPREPQVYTLPPSQEEMTKNQVSLTCLVKGFYPSDIAVEWESNGQPENNYKTTPPVLDSDGSFFLYSRLTVDKSRWQEGNVFSCSVMHEALHNHYTQKSLSLSLGK
light: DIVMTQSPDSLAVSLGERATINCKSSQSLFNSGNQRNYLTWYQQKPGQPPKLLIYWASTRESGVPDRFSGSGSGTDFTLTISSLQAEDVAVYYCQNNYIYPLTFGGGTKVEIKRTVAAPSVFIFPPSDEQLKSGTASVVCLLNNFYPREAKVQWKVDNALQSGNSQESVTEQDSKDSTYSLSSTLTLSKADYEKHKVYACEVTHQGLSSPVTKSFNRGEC
notes: IgG4-mut: deletion of 329 and 330 (EU index)
B8: Fcmut-24 (antibody, human IgG4 S228P, kappa, F234A L235A)
heavy: B7 heavy with F232A, L233A
light: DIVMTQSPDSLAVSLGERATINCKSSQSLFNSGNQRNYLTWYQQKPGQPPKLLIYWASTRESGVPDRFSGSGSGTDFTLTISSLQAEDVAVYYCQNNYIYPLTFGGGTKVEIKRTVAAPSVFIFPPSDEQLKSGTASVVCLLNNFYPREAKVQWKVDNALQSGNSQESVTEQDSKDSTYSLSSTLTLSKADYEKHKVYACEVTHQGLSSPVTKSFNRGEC
notes: also called Fcmut-024

molecular target: T5, Human CD64/FCGR1A protein (human, UniProt P12314 16-288, limits assumed); assay: SPR (Biacore T200), his-tagged CD64 captured on anti-His CM5 chip, antibody as analyte, pH 7.4, 1:1 binding fit
T5 construct: Bought, his-tagged; also called FcγRI; not shown: his tag
T5 sequence (P12314 16-288 limits assumed): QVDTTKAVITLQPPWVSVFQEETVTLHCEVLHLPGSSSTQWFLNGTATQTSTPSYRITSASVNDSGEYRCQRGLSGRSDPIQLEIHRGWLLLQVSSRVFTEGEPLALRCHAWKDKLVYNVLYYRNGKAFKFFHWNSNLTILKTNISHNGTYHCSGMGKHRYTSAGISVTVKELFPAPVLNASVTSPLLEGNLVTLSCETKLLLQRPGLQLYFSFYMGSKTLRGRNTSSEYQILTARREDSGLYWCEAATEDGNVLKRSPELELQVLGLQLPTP

koff | kon | Binder
0.0136 s⁻¹ | 1.46e+06 M⁻¹ s⁻¹ | B1
0.0377 s⁻¹ | 2.74e+06 M⁻¹ s⁻¹ | B2
0.0141 s⁻¹ | 938000 M⁻¹ s⁻¹ | B3

molecular target: T5, Human CD64/FCGR1A protein; assay: SPR (Biacore T200);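 for result: His-tagged Fc receptors captured on an anti-His antibody chip, Fc-variant antibodies flowed as analyte, 60 s association and 60 s dissociation, fitted by 1:1 or steady-state model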
Description: (§1) The specific procedures were as follows: Each of FcγR and FcRn proteins (for information of each Fc receptor, see Table 2 below) containing a histidine tag was captured to the chip surface to which anti-histidine antibodies were coupled, and the binding and dissociation between the proteins on the chip surface and antibodies in the mobile phase were detected to obtain affinity and kinetic constants.
(§2) Affinity assay: Each cycle included capture of the receptor, binding of a certain concentration of the antibody carrying the Fc region mutation of the present application, and regeneration of the chip. […] In each cycle, the antibody mutant solution flowed over the chip surface at a flow rate of 30 μL/min, with the binding time of 60 s and the dissociation time of 60 s. […] The obtained data were analyzed using Biacore T200 analysis software (version number 3.1) and using an analysis 1:1 binding or homeostasis analysis model to obtain the corresponding results.

fold reduction of binding against Fcmut-01 | Binder
8.7 times | B1
12.9 times | B2
14 times | B3

molecular target: T6, human C1q (human, UniProt P02745 23-245; P02746 28-253; P02747 29-245); assay: BLI (Octet), biotinylated antibody on SA sensor
T6 construct: Bought C1q (Complement Technology); also called C1q antigen
T6 sequence (P02745 23-245 limits assumed, chain 1 of 3): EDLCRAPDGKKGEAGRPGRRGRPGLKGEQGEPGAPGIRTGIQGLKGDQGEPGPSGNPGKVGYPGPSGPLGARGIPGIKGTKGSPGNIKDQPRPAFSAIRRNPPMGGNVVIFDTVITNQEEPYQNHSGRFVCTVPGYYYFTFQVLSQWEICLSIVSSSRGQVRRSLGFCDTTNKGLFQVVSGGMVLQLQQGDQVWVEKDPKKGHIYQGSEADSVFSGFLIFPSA
T6 sequence (P02746 28-253 limits assumed, chain 2 of 3): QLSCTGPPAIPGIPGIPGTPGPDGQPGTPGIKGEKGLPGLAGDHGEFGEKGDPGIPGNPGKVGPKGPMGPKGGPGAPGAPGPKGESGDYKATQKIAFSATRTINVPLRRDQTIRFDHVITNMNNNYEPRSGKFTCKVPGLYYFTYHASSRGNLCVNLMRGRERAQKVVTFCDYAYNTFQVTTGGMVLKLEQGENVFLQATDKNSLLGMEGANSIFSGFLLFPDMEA
T6 sequence (P02747 29-245 limits assumed, chain 3 of 3): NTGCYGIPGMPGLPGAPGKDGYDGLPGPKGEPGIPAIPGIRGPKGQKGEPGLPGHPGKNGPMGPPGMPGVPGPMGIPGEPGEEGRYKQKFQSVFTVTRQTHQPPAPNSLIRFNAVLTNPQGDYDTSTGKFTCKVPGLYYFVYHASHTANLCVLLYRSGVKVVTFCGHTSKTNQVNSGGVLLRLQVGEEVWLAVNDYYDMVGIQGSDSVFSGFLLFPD
Protocol: (§3) The antibody was diluted to approximately 100 nM, and C1q (Δ099, Complement Technology) was diluted to 40 nM.
(§4) Detection was conducted using Fortebio Octet Red96e, and the sensors were arranged according to the positions of the samples. […] After the experiment was completed, KD values were analyzed using ForteBio Octet analysis software, the coordinate axis data were derived, and Graphpad Prism 8 software was used for plotting.

binding result | Binder
no binding (tested: C1q 40 nM) | B1
no binding (tested: C1q 40 nM) | B2

molecular target: T7, Human FcRn/FCGRT & B2M heterodimeric protein (human, UniProt P55899 24-297; P61769 21-119); assay: SPR (Biacore T200), FcRn captured, antibody in flow, pH 6.0; pH 6.0
T7 construct: Bought heterodimer with His and Strep II tags
Description: as §1, §2

Kd | Binder
447 nM | B1
284 nM | B4
317 nM | B2
505 nM | B3

molecular target: T1, Human CD32B/FCGR2B protein; assay: SPR (Biacore T200);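 note: His-tagged Fc receptors captured on an anti-His antibody chip, Fc-variant antibodies flowed as analyte, 60 s association and 60 s dissociation, fitted by 1:1 or steady-state model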
Description: as §1, §2

binding result | Binder
no binding (tested: 400 nM) | B1
no binding (tested: 400 nM) | B4
no binding (tested: 400 nM) | B2
no binding (tested: 400 nM) | B3

molecular target: T2, Human CD32A/FCGR2A protein (167Arg); assay: SPR (Biacore T200);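 note: His-tagged Fc receptors captured on an anti-His antibody chip, Fc-variant antibodies flowed as analyte, 60 s association and 60 s dissociation, fitted by 1:1 or steady-state model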
Description: as §1, §2

binding result | Binder
no binding (tested: 400 nM) | B1
no binding (tested: 400 nM) | B4
no binding (tested: 400 nM) | B2
no binding (tested: 400 nM) | B3

molecular target: T8, Human FcγRIIIA/CD16A (V176) protein (human, UniProt P08637 17-208); assay: SPR (Biacore T200);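 note: His-tagged Fc receptors captured on an anti-His antibody chip, Fc-variant antibodies flowed as analyte, 60 s association and 60 s dissociation, fitted by 1:1 or steady-state model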
T8 construct: Bought, his-tagged; not shown: his tag
T8 sequence (P08637 17-208 F176V limits assumed): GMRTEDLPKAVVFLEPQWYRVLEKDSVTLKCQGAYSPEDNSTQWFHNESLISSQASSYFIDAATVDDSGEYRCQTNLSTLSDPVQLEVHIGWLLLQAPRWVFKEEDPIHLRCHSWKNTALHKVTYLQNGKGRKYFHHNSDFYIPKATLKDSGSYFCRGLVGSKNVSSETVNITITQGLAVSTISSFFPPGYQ

binding result | Binder
no binding (tested: 400 nM) | B1
no binding (tested: 400 nM) | B4
no binding (tested: 400 nM) | B2
no binding (tested: 400 nM) | B3

molecular target: T9, Human FcγRIIIB/CD16B (NA1) (human, UniProt O75015 17-200, limits assumed); assay: SPR (Biacore T200)
T9 construct: Bought, his-tagged; not shown: his tag
T9 sequence (O75015 other isoform, or with tags, fused parts or gaps limits assumed): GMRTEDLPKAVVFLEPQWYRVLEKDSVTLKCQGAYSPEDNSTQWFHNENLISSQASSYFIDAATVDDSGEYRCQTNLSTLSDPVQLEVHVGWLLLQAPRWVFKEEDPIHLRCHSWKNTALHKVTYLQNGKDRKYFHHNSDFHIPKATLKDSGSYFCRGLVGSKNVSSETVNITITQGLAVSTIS

binding result | Binder
no binding (tested: 400 nM) | B1
no binding (tested: 400 nM) | B4
no binding (tested: 400 nM) | B2
no binding (tested: 400 nM) | B3

molecular target: T5, Human CD64/FCGR1A protein; assay: SPR (Biacore T200); remark: another data set of the same source
Description: as §1, §2

binding result | Binder
no binding (tested: 400 nM) | B4

molecular target: T10, Human FcγRIIIB/CD16B (NA2) (human, UniProt O75015 17-200, limits assumed); assay: SPR (Biacore T200)
T10 construct: Bought, his-tagged; not shown: his tag
T10 sequence (O75015 17-200 N65S limits assumed): as the sequence (O75015 other isoform, or with tags, fused parts or gaps limits assumed) above, with R20S, N49S, D66N, V90I counted along it

binding result | Binder
no binding (tested: 400 nM) | B1
no binding (tested: 400 nM) | B4
no binding (tested: 400 nM) | B2
no binding (tested: 400 nM) | B3

molecular target: T3, Human CD32A/FCGR2A protein (167his); assay: SPR (Biacore T200)
Description: as §1, §2

binding result | Binder
no binding (tested: 400 nM) | B1
no binding (tested: 400 nM) | B4
no binding (tested: 400 nM) | B2
no binding (tested: 400 nM) | B3

molecular target: T11, Human FcγRIIIA/CD16A (F176) protein (human, UniProt P08637 17-208); assay: SPR (Biacore T200)
T11 construct: Bought, his-tagged; not shown: his tag
T11 sequence (P08637 17-208 limits assumed): as the sequence (P08637 17-208 F176V limits assumed) above, with V160F counted along it

binding result | Binder
no binding (tested: 400 nM) | B1
no binding (tested: 400 nM) | B4
no binding (tested: 400 nM) | B2
no binding (tested: 400 nM) | B3

molecular target: T5, Human CD64/FCGR1A protein; assay: SPR (Biacore T200), his-tagged receptor captured, antibody in flow
Description: as §1, §2

Kd | Binder
9.31 nM | B1
13.8 nM | B2
15 nM | B3

molecular target: T6, human C1q; assay: BLI (Octet), biotinylated antibody on SA sensor, C1q 40 nM
Protocol: as §3, §4

Response | Binder
0.0007 nm | B1
-0.0035 nm | B4
0.0016 nm | B2
-0.0027 nm | B3

molecular target: T6, human C1q; assay: BLI (Octet), biotinylated antibody on SA sensor; remark: another data set of the same source
Protocol: as §3, §4

binding result | Binder
no binding (tested: C1q 40 nM) | B5
no binding (tested: C1q 40 nM) | B6
no binding (tested: C1q 40 nM) | B7
no binding (tested: C1q 40 nM) | B8

molecular target: T4, Claudin18.2 (cp0007, Genscript); assay: BLI (Octet), antibody on AHC sensor, Claudin18.2 100 nM
Protocol: The antibody and Claudin18.2 (cp0007, Genscript) were diluted to 100 nM, respectively.
Detection was conducted using Fortebio Octet Red96e, and the sensors were arranged according to the positions of the samples. […] After the experiment was completed, KD values were analyzed using ForteBio Octet analysis software.

Kd | Response | koff | kon | Binder
2.73 nM | 0.138 nm | 0.0002 s⁻¹ | 73200 M⁻¹ s⁻¹ | B1
2.44 nM | 0.144 nm | 0.0002 s⁻¹ | 81900 M⁻¹ s⁻¹ | B4
2.9 nM | 0.15 nm | 0.0002 s⁻¹ | 69000 M⁻¹ s⁻¹ | B2
2.83 nM | 0.146 nm | 0.0002 s⁻¹ | 70700 M⁻¹ s⁻¹ | B3
